The values below come from US20240360242A1 (KISOJI BIOTECHNOLOGY, published 2024).

T1: human TROP2 cysteine poor domain (CPD), recombinant (human, UniProt P09758 147-274)
T1 sequence: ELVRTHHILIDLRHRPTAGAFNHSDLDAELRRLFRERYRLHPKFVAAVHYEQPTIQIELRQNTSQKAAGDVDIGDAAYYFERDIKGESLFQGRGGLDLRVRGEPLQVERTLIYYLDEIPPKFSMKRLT

T2: recombinant human EpCAM (human, UniProt P16422 24-265)
T2 construct: also called rhEpCAM
T2 sequence (looked up): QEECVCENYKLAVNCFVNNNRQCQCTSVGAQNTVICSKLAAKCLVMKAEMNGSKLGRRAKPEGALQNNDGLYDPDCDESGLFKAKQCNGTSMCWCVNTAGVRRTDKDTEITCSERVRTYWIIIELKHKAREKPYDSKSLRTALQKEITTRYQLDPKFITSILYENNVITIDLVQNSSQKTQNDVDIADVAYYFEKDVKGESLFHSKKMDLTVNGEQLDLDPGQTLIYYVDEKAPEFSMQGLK

T3: recombinant human TROP2 extracellular domain (aa 1-274) comprising His tag (human, UniProt P09758 27-274)
T3 construct: Used here for all assays on recombinant human TROP2 (ELISA, immunoblot, SPR, crystal), although only some of them name the catalogue number; also called human recombinant TROP2; recombinant human TROP2 protein; not shown: His tag
T3 sequence: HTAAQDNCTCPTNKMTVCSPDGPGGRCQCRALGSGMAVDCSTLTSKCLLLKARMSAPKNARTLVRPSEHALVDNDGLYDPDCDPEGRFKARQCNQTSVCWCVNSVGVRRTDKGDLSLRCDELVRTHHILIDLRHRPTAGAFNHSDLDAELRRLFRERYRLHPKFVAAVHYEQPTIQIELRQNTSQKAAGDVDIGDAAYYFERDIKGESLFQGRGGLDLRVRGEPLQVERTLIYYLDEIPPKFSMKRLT

T4: recombinant cynomolgus/Rhesus TROP2 full-length extracellular domain (cynomolgus/Rhesus, UniProt P09758 27-274 (human entry))
T4 construct: also called cynomolgus TROP2
T4 chain: T3 sequence with M36V, S67N, I204V

B1: KD001 (antibody, human IgG1, V domains shown)
VH: QVQLQESGGGMVHPGGSLRLSCAASGFTFSGSDMSWVRQAPGKGPEWVSYITSGGTTYYPDSVKGRFTISRDNAKNTLYLQMNSLTPDDTALYRCAKARLTDSHYVEDAWGQGTQVTVSS
notes: also called anti-TROP2 sdAb KD001
B2: KD004 (antibody, human IgG1, V domains shown)
VH: B1 VH with M11L, H13Q, G16R, S53G, G54S, I69T, T77M, T86K
notes: also called anti-TROP2 sdAb KD004
B3: KD005 (antibody, human IgG1, V domains shown)
VH: B1 VH with M11L, H13E, P14A, T86K, A98S
notes: also called anti-TROP2 sdAb KD005
B4: KD002 (antibody, human IgG1, V domains shown)
VH: QVQLQESGGGMVQVGGSLRLSCAASGFPFSSADMSWVRQAPGKGPEWVSYINADGSKTYYPDSVKGRFTISRDNAKNTLYLLMNNLKPEDTALYRCARAKLTDTHYVEDYWGQGTQVTVSS
notes: also called anti-TROP2 sdAb KD002
B5: KD003 (antibody, human IgG1, V domains shown)
VH: B4 VH with V14P, P28T, S31N, A32Y, D54G, K57N, Y59D, T78M
notes: also called anti-TROP2 sdAb KD003
B6: KD007 (antibody, human IgG1, V domains shown)
VH: QVQLQESGGGLVQPGGSLRLSCAASGFAFSFYAMAWYRQAPGKQRDMVATITAYGNTNYADSVKGRFTTSRDNAKNTVYLQMNSLKPEDTAVYVCNANLPSASHNYWGQGTQVTVSS
notes: also called anti-TROP2 sdAb KD007

Changes are numbered by the printed parent chain.

For one test, the target named is T1, human TROP2 cysteine poor domain (CPD), …. Put plainly: immunoblot, 1 µg/mL antibody, anti-human IgG-HRP. Here is the method:
Samples of recombinant proteins of human TROP2 extracellular domain (ECD) (Sino Biological, Cat. no. 10428-H08H) and human TROP2 cysteine poor domain (CPD) were prepared for SDS-PAGE analysis under reducing or non-reducing conditions with NuPAGE™ LDS Sample Buffer (ThermoFisher Cat. no NP0007) with NuPAGE™ Sample Reducing Agent (ThermoFisher Cat. no. NP0004) or without reducing agent. Samples under reducing condition were denatured by heating at 70° C. for 10 minutes. Samples (16 μL) were loaded onto 4-12% Bis-Tris mini-gels (1.5 mm, 15 wells) or 250 ng of samples were loaded onto 14% Tris-glycine mini-gels alongside a BSA standard. […] Gels were stained using GelCode™ staining reagent (Thermo Fisher, Cat. no. 24594).
Proteins were transferred to nitrocellulose membranes using the iBlot™ system (Thermo Fisher, Cat. no. IB301031) according to the manufacturer's instructions. Membranes were blocked by incubation in PBS/0.1% Tween™ 20/5% Milk for 1 hour at room temperature with shaking, followed by incubation with 1 μg/mL of Anti-TROP2 antibodies or the isotype control (IgG1 isotype) in 20 mL of PBS/0.1% Tween™ 20/5% milk. Membranes were washed three times for 10 minutes with PBS/0.1% Tween™ 20. Membranes were incubated with HRP-conjugated goat anti-human IgG antibody (Sigma-Aldrich, AP113P) diluted at 1:10000 in blocking buffer for 1 hour at room temperature with shaking. Membranes were washed three times for 10 minutes with PBS/0.1% Tween™ 20. The signal was visualized using Super Signal™ West Pico PLUS (Thermo Fisher, Cat. no. 34080) according to the manufacturer's instructions. Images were captured using the Azure Biosystem imaging system.
Regarding B1, the binding result is on record as “no binding (tested: 1 µg/mL)”.
As to B2, the binding result is reported as “no binding (tested: 1 µg/mL)”.
As for B3, the binding result is on record as “no binding (tested: 1 µg/mL)”.
On to B4, for which the binding result is recorded as “no binding (tested: 1 µg/mL)”.
As to B5, the binding result was “no binding (tested: 1 µg/mL)”.

For a further test, the target named is T2, recombinant human EpCAM. The test is described as follows: ELISA.
Take B6: the binding result is “no binding”.

The next test concerns the target T3, recombinant human TROP2 extracellular …. The test is described as follows: ELISA, coated rh TROP2. Here is the method: Human TROP2 recombinant proteins were coated on 96-well ELISA plates at the concentration of 1 μg/mL. Plates were covered with adhesive plate cover and stored at 4° C. overnight. The next day, plates were washed 3× with washing buffer (PBS with 0.1% Tween™ 20). Plates were blocked with 2% fat-free BSA in washing buffer for 1 hour at 37° C. During the incubation time, the TROP2 reference antibodies, as well as the humanized variants, were diluted in the blocking buffer to the indicated concentrations. […] After blocking, the blocking buffer was removed from the wells and 100 μL of anti-TROP2 sdAbs dilutions were transferred to the corresponding wells. Plates were covered with adhesive plates cover and incubated at 37° C. for 1 hour. During the primary antibody incubation, the secondary antibody (goat anti-human IgG, HRP conjugated) was diluted 1 in 5000 with the blocking buffer. Plates were washed 3× with blocking buffer, followed by secondary antibody incubation for another 1 hour at 37° C. After the secondary antibody incubation, plates were washed 3× with washing buffer and added with 100 μL of ELISA chemiluminescent substrate (Thermofisher). The luminescence signal was detected by SpectraMax i3x at […].
Turning to B3, the concentration for a half-maximal effect (EC50) turned out to be 0.08 nM and the “EC50% to KD005” value is 1 ratio to KD005.
B4: the EC50 stood at 0.055 nM and the “EC50% to KD005” value was 0.688 ratio to KD005.

In a further test the target is T4, recombinant cynomolgus/Rhesus TROP2 …. Put plainly: ELISA on coated recombinant TROP2 ECD, 1:5 dilutions from 1000 nM, RLU. How it is done:
TROP2 full-length extracellular domain recombinant proteins including cynomolgus/Rhesus (FIG. 12A), human (FIG. 12B), mouse (FIG. 12C), and rat (FIG. 12D) were coated on 96-well ELISA plates at the concentration of 1 μg/mL. Plates were covered with adhesive plate cover and stored at 4° C. overnight. The next day, plates were washed 3× with washing buffer (PBS with 0.1% Tween™ 20). Plates were blocked with 2% fat-free BSA in washing buffer for 1 hour at 37° C. During the incubation time, the anti-TROP2 sdAbs were diluted in the blocking buffer to the indicated concentrations. In brief, the anti-TROP2 sdAbs starting concentration was 1000 nM and serial diluted 1 in 5 to 0.02048 pM. After blocking, the blocking buffer was removed from the wells and 100 μL of anti-TROP2 sdAbs dilutions were transferred to the corresponding wells. Plates were covered with adhesive plates cover and incubated at 37° C. for 1 hour. During the primary antibody incubation, the secondary antibody (goat anti-human IgG, HRP conjugated) was diluted 1 in 5000 with the blocking buffer. Plates were washed 3× with blocking buffer, followed by secondary antibody incubation for another 1 hour at 37° C. After the secondary antibody incubation, plates were washed 3× with washing buffer and added with 100 μL of ELISA chemiluminescent substrate (Thermofisher). The luminescence signal was detected by SpectraMax i3x at […].
On to B1, for which the “EC50 (read off the curve)” value is ~0.2 nM.
B2: the half-maximal effective concentration (EC50 (read off the curve)) was ~0.2 nM.
In the case of B3, the “EC50 (read off the curve)” value is ~0.2 nM.
The same measure, in the same setting: the figure for B4 is ~0.2 nM.
Regarding B5, the “EC50 (read off the curve)” value was ~0.2 nM.
